Patent US20170260508A1

Molecular target: chimeric LILRB2-PILRβ receptor (aa 24-458 of hLILRB2) on mouse T cell hybridoma NFAT-GFP reporter cells (human) (UniProt Q8N423)
Test: cell-based or functional assay

Chain of chimeric LILRB2-PILRβ receptor (aa 24-458 of hLILRB2) on mouse T cell hybridoma NFAT-GFP reporter cells (human) (Q8N423 other isoform, or with tags, fused parts or gaps mutant limits assumed, form in doubt): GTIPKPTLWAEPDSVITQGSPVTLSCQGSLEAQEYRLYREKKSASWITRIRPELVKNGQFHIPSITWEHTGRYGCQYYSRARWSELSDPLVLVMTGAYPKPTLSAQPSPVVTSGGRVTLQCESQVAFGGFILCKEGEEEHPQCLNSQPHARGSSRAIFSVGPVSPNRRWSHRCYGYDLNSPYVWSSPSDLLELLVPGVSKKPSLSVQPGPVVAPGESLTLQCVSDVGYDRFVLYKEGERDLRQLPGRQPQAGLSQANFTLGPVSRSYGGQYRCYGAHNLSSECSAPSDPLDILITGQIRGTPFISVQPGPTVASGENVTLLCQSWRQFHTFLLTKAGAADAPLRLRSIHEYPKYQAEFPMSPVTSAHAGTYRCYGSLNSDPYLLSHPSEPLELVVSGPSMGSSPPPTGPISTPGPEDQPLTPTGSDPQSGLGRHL

GFP expression of LILRB2 reporter cells, immobilized monomeric GST-Angptl2: 20%
GFP expression of LILRB2 reporter cells, soluble monomeric GST-Angptl2: 3.56%
GFP induction of LILRB2 reporter cells by immobilized Angptl2, no antibody: 19.9%
Substance: GST-human Angptl2, bacterially expressed (GST-Angptl2-FLAG) (from UniProt Q9UKU9 23-493) (ligand)
